One experiment deals with T1, ovalbumin (OVA) (UniProt P01012 2-386).
T1 sequence (looked up): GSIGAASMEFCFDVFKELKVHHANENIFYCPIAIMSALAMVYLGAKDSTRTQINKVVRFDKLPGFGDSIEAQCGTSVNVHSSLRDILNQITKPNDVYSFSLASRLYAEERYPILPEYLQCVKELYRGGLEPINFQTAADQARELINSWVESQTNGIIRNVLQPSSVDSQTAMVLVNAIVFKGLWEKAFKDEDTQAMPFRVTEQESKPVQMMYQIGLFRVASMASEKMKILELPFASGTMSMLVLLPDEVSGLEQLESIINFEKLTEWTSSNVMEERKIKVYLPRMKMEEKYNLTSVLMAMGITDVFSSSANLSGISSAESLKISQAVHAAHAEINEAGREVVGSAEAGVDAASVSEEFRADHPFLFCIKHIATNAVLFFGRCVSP
The experiment can be described thus: antigen solid phase ELISA: coated ovalbumin (negative control), anti-mouse IgG2A-HRP, OD450. As to the method: (§1) The antigen specificity of the purified antibody was measured by ELISA with PBS buffer. 2.5 μg/mL of antigen was dispensed to a 96 well Maxi Sorp Plate (Nunc) and reacted overnight at 4° C. to coat the plate with an antigen (mouse Sema 3A protein). Ovalbumin, rabbit IgG and skim milk were immobilized in the plate as negative controls in similar manner in order to examine specificity of antibodies. The next day, the plate was washed three times with 200 μL/well of washing solution (PBS containing 0.05% Tween 20), to which was added 200 μL/well of blocking solution (PBS containing 0.5% skim milk) and the mixture was reacted for 30 minutes. The plate was washed three times with 200 μL/well of washing solution, to which was added 100 μL of culture supernatant containing antibody and the mixture was reacted for one hour. The plate was washed five times with 200 μL/well of washing solution, to which was added 100 μL/well of diluent in which anti-mouse IgG2A goat antibody labeled with horseradish peroxidase (HRP) (Bethyl Laboratories, Inc.) was diluted 2000 times with PBS buffer and the mixture was reacted for one hour. […] The absorbance was measured at 450 nm using μQuantBiomolecular Spectrometer (Bio Tek Instruments, Inc.) Results are shown in FIG. 2.

Another experiment addresses T2, mouse Sema 3A protein (mouse, UniProt O08665 21-772, limits assumed).
T2 construct: Produced from mouse Sema 3A protein expressing cells; also called Mouse Sema 3A antigen
T2 sequence (looked up): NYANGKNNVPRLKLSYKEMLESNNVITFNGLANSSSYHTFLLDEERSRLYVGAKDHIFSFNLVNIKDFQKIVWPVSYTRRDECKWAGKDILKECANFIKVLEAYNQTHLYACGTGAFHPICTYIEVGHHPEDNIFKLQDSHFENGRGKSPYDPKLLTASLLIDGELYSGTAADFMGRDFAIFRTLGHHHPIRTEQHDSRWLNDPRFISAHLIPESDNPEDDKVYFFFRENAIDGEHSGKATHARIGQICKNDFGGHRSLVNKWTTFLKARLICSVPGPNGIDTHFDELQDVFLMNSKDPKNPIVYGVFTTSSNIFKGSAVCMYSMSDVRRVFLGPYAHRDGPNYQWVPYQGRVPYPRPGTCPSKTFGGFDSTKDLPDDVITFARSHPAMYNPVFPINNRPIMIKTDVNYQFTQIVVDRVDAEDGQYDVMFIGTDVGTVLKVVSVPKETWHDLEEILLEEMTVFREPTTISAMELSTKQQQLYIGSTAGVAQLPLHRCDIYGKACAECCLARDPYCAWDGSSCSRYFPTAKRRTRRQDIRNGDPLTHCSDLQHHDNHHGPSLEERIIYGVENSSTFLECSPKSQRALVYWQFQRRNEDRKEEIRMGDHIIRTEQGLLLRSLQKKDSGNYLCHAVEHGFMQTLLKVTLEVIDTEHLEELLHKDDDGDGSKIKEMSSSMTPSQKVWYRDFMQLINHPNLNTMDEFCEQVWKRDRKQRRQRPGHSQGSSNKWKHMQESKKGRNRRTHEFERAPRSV
The experiment is described as follows: antigen solid phase ELISA: coated mouse Sema 3A (2.5 µg/mL), anti-mouse IgG2A-HRP, OD450. As to the method: as §1
Background: In an ELISA, binding on a coated surface is turned into a signal by an enzyme label.

Consider 1 molecule from patent US20150368327A1 (YOKOHAMA CITY UNIVERSITY, published 2015).

B1: Anti-Sema 3A avian-mouse chimeric antibody (clone No. 4-2-derived) (antibody, mouse IgG2a)
heavy: AVTLDESGGGLQTPGGALSLVCKASGFTFSSYPMGWVRQAPGKGLEWVAGIDDDGDSDTRYAPAVKGRATISRDNGQSTVRLQLNNLRAEDTGTYYCAKHTGIGANSAGSIDAWGHGTEVIVSSAKTTAPSVYPLAPVCGDTTGSSVTLGCLVKGYFPEPVTLTWNSGSLSSGVHTFPAVLQSDLYTLSSSVTVTSSTWPSQSITCNVAHPASSTKVDKKIEPRGPTIKPCPPCKCPAPNLLGGPSVFIFPPKIKDVLMISLSPIVTCVVVDVSEDDPDVQISWFVNNVEVHTAQTQTHREDYNSTLRVVSALPIQHQDWMSGKEFKCKVNNKDLPAPIERTISKPKGSVRAPQVYVLPPPEEEMTKKQVTLTCMVTDFMPEDIYVEWTNNGKTELNYKNTEPVLDSDGSYFMYSKLRVEKKNWVERNSYSCSVVHEGLHNHHTTKSFSRTPGK
light: ALTQPASVSANLGGTVKITCSGGGSYTGSYYYGWYQQKSPGSALVTMIYYNNKRPSDIPSRFSGSLSGSTNTLTITGVRADDEAVYFCGSADNSGDAFGAGTTLTVLGQPKSSPSVTLFPPSSEELETNKATLVCTITDFYPGVVTVDWKVDGTPVTQGMETTQPSKQSNNKYMASSYLTLTARAWERHSSYSCQVTHEGHTVEKSLSRADCS
notes: Avian variable regions of clone No. 4-2 with mouse IgG2a heavy and mouse lambda light constant regions; also called anti-Sema 3A avian-mouse chimeric antibody (IgG)
B1: the binding result in the experiment with ovalbumin (OVA) is listed as “no binding (tested: 100 ng/µL)”. In addition, in the experiment with mouse Sema 3A protein, the “EC50 (read off the curve)” value was ~0.01 µg/mL.

Usually EC50 (read off the curve) stands for the midpoint of the concentration-response curve. Low values mean higher potency in that assay, high ones lower potency in that assay.
